The text below walks through data of patent US20240199757A1 (UNIVERSITY OF CHICAGO, published 2024).

The target in series [1] is hNT5EDF (substrate binding knock-out variant of hNT5E) (human). Description: DSF thermal shift, 1.5-fold molar excess of Fab, 1 mM ATP (hNT5EDF alone 46° C.). On the procedure:
With 1 mM ATP alone (red dashed line), the TM shifts from one transition at 49° C. to two transitions at TM 59° C. and 64° C. […] Thermal shift assays of substrate binding knock-out variants hNT5EDF (FIG. 2B) and hNT5EFF (FIG. 2C) show no change in thermal stability with the addition of ATP.
(§1) Thermal stability of samples was analyzed by differential scanning fluorimetry (DSF) using a real-time PCR instrument (Bio-Rad CFX384). Protein samples were mixed with 4× Sypro Orange at a final 4 μM concentration. For target/Fab complexes, 1.5-fold molar excess of Fab was used. All reactions were performed in triplicates in a 384-well plate. Thermal melting curves were monitored from 25° C. to 95° C. in steps of 0.5° C./30 s. Wavelengths of 490 and 575 nm were used for excitation and emission, respectively. The melting temperatures were inferred from the first derivative of the melting curves from the mean of triplicate runs using CFX software provided by the manufacturer.

The target of series [2] is T1, Full-length human NT5E (recombinant, in-house) (human, UniProt P21589 27-549).
T1 construct: also called hNT5E; hNT5EWT
T1 sequence: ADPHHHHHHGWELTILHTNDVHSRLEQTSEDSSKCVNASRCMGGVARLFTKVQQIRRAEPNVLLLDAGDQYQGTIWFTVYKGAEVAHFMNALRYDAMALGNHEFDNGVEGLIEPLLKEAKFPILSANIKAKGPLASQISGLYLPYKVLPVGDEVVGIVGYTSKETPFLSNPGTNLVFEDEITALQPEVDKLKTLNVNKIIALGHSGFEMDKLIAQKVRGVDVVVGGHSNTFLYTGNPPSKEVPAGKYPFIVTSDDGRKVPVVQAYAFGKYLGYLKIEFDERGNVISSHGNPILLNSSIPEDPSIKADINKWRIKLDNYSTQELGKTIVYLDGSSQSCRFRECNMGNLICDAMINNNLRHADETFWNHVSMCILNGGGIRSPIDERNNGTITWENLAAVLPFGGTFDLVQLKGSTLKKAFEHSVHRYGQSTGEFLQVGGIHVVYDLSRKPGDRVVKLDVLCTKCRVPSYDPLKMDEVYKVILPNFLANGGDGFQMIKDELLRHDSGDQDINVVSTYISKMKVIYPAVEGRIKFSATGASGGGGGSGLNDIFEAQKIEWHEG
The series can be described thus: DSF thermal shift, 1.5-fold molar excess of Fab, no ATP (NT5E alone 49° C.). As to the method:
as §1
TABLE 6 Summary of TM for hNT5EWT hNT5EDF, and hNT5E by differential scanning fluorimetry. […] Melting temperatures (TM) are for NT5E only and are represented by the mean of three replicates.

Series [3] addresses T2, Full-length cynomolgus NT5E (recombinant) (cynomolgus, UniProt P21589 27-549 (human entry)).
T2 construct: also called cNT5E; cyno NT5E
T2 chain: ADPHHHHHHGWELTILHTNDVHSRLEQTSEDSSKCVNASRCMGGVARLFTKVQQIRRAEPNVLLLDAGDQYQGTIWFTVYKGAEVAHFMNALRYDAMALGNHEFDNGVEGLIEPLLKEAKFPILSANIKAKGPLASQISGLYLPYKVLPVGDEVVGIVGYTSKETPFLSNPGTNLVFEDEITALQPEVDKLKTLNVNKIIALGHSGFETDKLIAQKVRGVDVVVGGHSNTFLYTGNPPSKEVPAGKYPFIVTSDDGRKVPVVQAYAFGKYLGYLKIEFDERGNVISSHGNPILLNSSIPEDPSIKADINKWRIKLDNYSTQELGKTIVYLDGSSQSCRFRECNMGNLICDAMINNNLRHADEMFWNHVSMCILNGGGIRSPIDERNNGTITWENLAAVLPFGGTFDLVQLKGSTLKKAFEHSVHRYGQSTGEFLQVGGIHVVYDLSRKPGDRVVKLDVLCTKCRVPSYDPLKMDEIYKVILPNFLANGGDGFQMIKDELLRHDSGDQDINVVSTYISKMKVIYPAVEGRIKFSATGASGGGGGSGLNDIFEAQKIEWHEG
Description: SPR, His-captured NT5E, no ATP; SPR, No ATP. As to the method: (§2) All SPR experiments were performed at 25° C. using MASS-1 (Bruker) instrument. hNT5E, mNT5E and cNT5E were immobilized onto a nitrilotriacetic acid (NTA) sensor chip via His-tag. For kinetic experiments, after ligand immobilization, 2-fold serial dilutions of the Fabs were injected. After double-reference subtraction data were analyzed with BiaEvaluation (GE Healthcare) or Sierra Analyser (Bruker) software. The experiments were carried in buffers in presence and absence of 1 mM ATP to compare the kinetic parameters of the Fabs binding to closed and open form of NT5E.

The target of series [4] is T2, Full-length cynomolgus NT5E …. The series can be described thus: SPR, His-captured NT5E, 1 mM ATP. As to the method: as §2
Background: Surface plasmon resonance follows binding to a sensor surface in real time, without labels.

The target of series [5] is T1, Full-length human NT5E (recombinant, …). Description: SPR, His-captured NT5E, 1 mM ATP. As to the method:
as §2

B1: 1789 Fab (Fab, V domains shown)
VH: EVQLVESGGGLVQPGGSLRLSCAASGFNVSYSSIHWVRQAPGKGLEWVASISSSSGYTYYADSVKGRFTISADTSKNTAYLQMNSLRAEDTAVYYCARNYWGWYPFYYFAFDYWGQGTLVTV
VL: DIQMTQSPSSLSASVGDRVTITCRASQSVSSAVAWYQQKPGKAPKLLIYSASSLYSGVPSRFSGSRSGTDFTLTISSLQPEDFATYYCQQGWDYPITFGQGTKVEIKR
As a reminder, the kon is the rate constant with which the complex forms. A word on the Kd: it is the free concentration of one partner at which half of the binding sites on the other are occupied at equilibrium, for simple one-to-one binding. The koff is a measure of how fast the partners let go of each other. As to B1, the “TM of NT5E in the presence of the Fab” value in series [1] was found to be 46 ° C; in series [2] it was 48 ° C. The kon in series [3] came out at 140000 M⁻¹ s⁻¹; in series [4], 160000 M⁻¹ s⁻¹; in series [5] it was 170000 M⁻¹ s⁻¹. Besides, the Kd in series [4] was found to be 32 nM; in series [5], 42 nM. Besides, the values for the koff in series [4] and in series [5] were 0.0051 s⁻¹ and 0.0073 s⁻¹, respectively.
